# Source: IntAct's records for PubMed 20308558
# B1: Ras-related protein Rab-11A (Homo sapiens), P62491 (parent)
# chain: MGTRDDEYDYLFKVVLIGDSGVGKSNLLSRFTRNEFNLESKSTIGVEFATRSIQVDGKTIKAQIWDTAGQERYRAITSAYYRGAVGALLVYDIAKHLTYENVERWLKELRDHADSNIVIMLVGNKSDLRHLRAVPTDEARAFAEKNGLSFIETSALDSTNVEAAFQTILTEIYRIVSQKQMSDRRENDMSPSNNVVPIHVPPTTENKPKVQCCQNI
# partner: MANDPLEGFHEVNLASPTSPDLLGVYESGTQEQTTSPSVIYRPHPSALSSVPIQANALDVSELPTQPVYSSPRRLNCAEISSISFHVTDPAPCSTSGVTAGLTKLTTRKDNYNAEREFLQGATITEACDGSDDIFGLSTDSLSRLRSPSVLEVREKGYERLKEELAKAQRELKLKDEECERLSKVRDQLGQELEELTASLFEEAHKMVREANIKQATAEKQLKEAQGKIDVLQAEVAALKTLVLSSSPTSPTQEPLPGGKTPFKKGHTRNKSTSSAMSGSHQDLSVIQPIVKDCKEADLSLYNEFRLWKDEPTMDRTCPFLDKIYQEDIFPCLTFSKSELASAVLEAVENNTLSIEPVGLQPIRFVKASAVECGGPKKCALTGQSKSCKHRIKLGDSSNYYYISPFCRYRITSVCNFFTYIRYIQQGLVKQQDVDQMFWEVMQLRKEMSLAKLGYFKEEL
# Variants of: B1
# Details: with RAB3IP
row,Variant,effect of a mutation on the interaction
1,Q70L,increasing interaction
2,S25N,decreasing interaction
